Results as given in the DeepSol protein solubility set.

Test: soluble on expression in E. coli; label from the status in PepcDB or PDB records

Sequence	soluble on expression in E. coli
MSLDAAGLARSTFFYHQQRLNVPDKHIDLKEAIVEVFTRTNRRYGYRRIHAHLRQDGWNVNHKLVYKLMDELGLKSKVRAKKRYNAYQGTVSHIAENVLDRCFTPDKPNTVWTSDVTEFRIAGTKVYLSPIMDLYDRSIVSYSVSTSPNTAFTSRSLKDAITSQSPGSGLLVHTDQGIQYQHSSWRDLITSIDGIQSMSRKGNCYDNAVMENFFGHLKSEMHHGESFDGLEHFRQALDGYIHWYNHERIQKRLKGLAPMQYRNQTLEPLTAEGHHHHHH	not soluble
MINQNATYMEESAQSAVDNFGLGFNLGNTLDANGCGTGKPVATYETFWGQPETTQDMMTFLMQNGFNAVRIPVTWYEHMDAEGNVDEAWMMRVKAIVEYAMNAGLYAIVNVHHDTAAGSGAWIKADTDVYAATKEKFKKLWTQIANALADYDQHLLFEGYNEMLDGNNSWDEPQKASGYEALNNYAQDFVDAVRATGGNNATRNLIVNTYAAAKGENVLNNFMLPTDAVNNHLIVQVHSYDPWNFFNTKTTWDSECHNTLTEIFSALSKKFTTIPYIIGEYGTHGESDISVSKSSPAEKIKLAADQAADMVKLAKDHHSATFYWMSIFDGSDRIQPQWSLPTVVEAMQEAYNN	soluble
VVQPADIDVPETPARPVLVVDFGAQYAQLIARRVREARVFSEVIPHTASIEEIRARQPVALVLSGGPASVYADGAPKLDPALLDLGVPVLGICYGFQAMAQALGGIVAHTGTREYGRTELKVLGGKLHSDLPEVQPVWMSHGDAVTAAPDGFDVVASSAGAPVAAFEAFDRRLAGVQYHPEVMHTPHGQQVLSRFLHDFAGLGAQWTPANIANALIEQVRTQIGDGHAICGLSGGVDSAVAAALVQRAIGDRLTCVFVDHGLLRAGERAQVQRDFVAATGANLVTVDAAETFLEALSGVSAPEGKRKIIGRQFIRAFEGAVRDVLDGKTAEFLVQGTLYPDVVESGGGSGTANIKSHHNVGGLPDDLKFTLVEPLRLLFKDEVRAVGRELGLPEEIVARQPFPGPGLGIRIVGEVTAKRLDTLRHADSIVREELTAAGLDNQIWQCPVVLLADVRSVGVQGDGRTYGHPIVLRPVSSEDAMTADWTRVPYEVLERISTRITNEVAEVNRVVLDITSKPPATIEWE	not soluble
MARLEVPRPATFVTLTGFMGVGKSRIGRELARALMLHFIDLDRYIERRTGISIPDIFRHLGEEAFRRMEKEAVRELVGKDYLVLSLGGGTFMDPESQKALLGRGPVVALWASPETILERAMRKPGERPLLQVENPLERIRTLLEARAPVYRKAHIHVSTDGRRVEEVVEEIVEKLWRHAEARGA	soluble
SVREANIKQATAEKQLKEAQGKIDVLQAEVAALKTLVLSSSPTSPTQEPLPGGKTPFKKGHTRNKSTSSAMSGSHQDLSVIQPIVKDCKEADLSLYNEFRLWKDEPTMDRTCPFLDKIYQEDIFPCLTFSKSELASAVLEAVENNTLSIEPVGLQPIRFVKASAVECGGPKKCALTGQSKSCKHRIKLGDSSNYYYISPFCRYRITSVCNFFTYIRYIQQGLVKQQDVDQMFWEVMQLRKEMSLAKLGYFKEEL	soluble
MVFCGDDVATGVRDAITYCYRCKGRKVTLSDHEADDDNKPIGDFDYDHEVVVFEIRSRAMEKLRKKRRTGMEGLTYKFVKEYDIENEFCSVRSSFSECCMSDISIEGYMTAKTEFSRSSSLKGLELENQWKMHYVNEIKKGSVIQEFCHCQGWPFGLGRKAALLPPLPKSPAESWSWRKPTRVTPVPFV	soluble
FNFGASYKNFSFSAQFGASWGTYALVQTDLRQEKYDDLEYKNVSAMWKDMYVYEDVLDAGGNVVAPMNRSAKYPNLRYSAINGQASTFWKVSAASVRLRNLTVAYSLPKEWTNRIGISSCRLNLTAQNLLNFYNPYPDGVWSTWGGTYGRYPNLRKVTLGVNVSF	not soluble
MSLALYLGNKRMNDMYYTIGQVAKMQHLTISQIRYYDKQGLFPFLQRNEKGDRIFNEEALKYLEMILCLKNTGMPIQKIKQFIDWSMEGDSTILHRLKLMKQQEANVLQLIQDTEKNLKKIQQKIAKYEDEISSANATTKEGHHHHHH	soluble
IQILSKSKLEKCEKTSDSGNLNCSTKIVLNLAVPSGSSGGEASIVAEIVEVEDNSSSNMQTVRIPPVITVNKSAAYALYDLTYIRDVPYKPQEYHVTTRKCEPDAGPDIVQICERLRDEKGNVLEQTQPICCPCGPQRRMPSSCGDIFDKMIKGKANTAHCLRFPGDWFHVFGIGQRSLGFSVRVELKTGTRVSEVIIGPENRTATANDNFLKVNLIGDFGGYTSIPSFEDFYLVIPREAAEAGQPGSLGANYSMWMLLERVRFTLDGLECNKIGVGYEAFNTQPNFCSSPYWSCLHNQLWNFRESDINRIDRHQLPLYGLEGRFERINQHPNAGPHSFSIGVTETLNTNLMIELRADDIEYVFQRSPGKIINIAIPTFEALTQFGVAAVIIKNTGEVEASYSLTFDCSKGVAFVEEQFFIIKPKAVTTRSFKLYPTKDQAAKYICTAILKDSQFSEVDRAECQFSTTATVLDNGTQVTNPFQIPETQPKGFFDSIRILWTKIINGLVDFITGDTCRNKCSSFFDFSCHIQYVCLS	not soluble
MDDPSITPTEKCRFYLGITLRDDTKARPVPGIMQIPGGRYAVFRHTGSYSSLHKVYRSIYEEWFPKSKYHPQSTFSFEMYMNHPSTTETSELLTEIYIPVIRK	not soluble
MTELHGECMCGAVTITATPARAALGACHCDMCRRWTSSAYVSFPVEPGYAALGPVKVYGSSDWAERAFCGTCGSVLWYRITLPGKMHGQTQMAAGLFENAGGNALKLELYIDKKPEGYAFAGERRQMTQAEVEAMYAPSDLGDSQ	not soluble
MNALPPARRLRVASIGGGFSGAALAWHLARAHRPERLSISVIEPRLALGGGLAYSSEEPSHRVNVPAVRMSMAPDDPQHFVRWLAGSGELERDADAIWKNGDAYPRRRVFGRYVAEHLAPYLASGAVRHVGGPATGVTREANGAGWTVQTSAGPVIADIVVLAATHPAPAIPAALASLAEASGFVADPYAASALAGIGLDASVLIVGSGLTSADMVTELDRRGHRGRVLALSRRGLRSRGHPDVRGEPFGDFASAPATSALGLLKSIRATLAAAREANVNWQSVFDQLRLQGPVLWAALAPSERARLVRQLRVFWDVHRFRIAPQIASVLDRRQTAGTFDTIAARLVASNDEGENLAVSFQRRGQTRIETARFDAVINTTGPAHGQALQLNPALRSLAEAGLIRSDAYGLGIETSLDSRAIGWDGEAVAGLFVAGPLARGTFGELMGLPEVARHAQMVAAEIARLVDRFPSAEAVGANAGDVATARLEHHHHHH	not soluble
MTPSKTTLVERCYKYIMSNEKNWSPYTVINRKSWVKNYIEPFFKDTKLIDINPVLIQTFINTTFNNCTFSSSKIRYRFISSVLKEAYRLREINENPCDFVKLPLEHHHHHH	not soluble
SVNYYKVLGVPRNASSSDIKRAFHQLALQVHPDKNPGDKEAAEEKFKQVAEAYHILSDAKKRKDYDRSRWNRNKGEIRGDGHDKGETIRVNDSRDETDWEEKICSRRPRHTFQKVTEDEDLFSGDCLFSGPITGSRRASSPFFTVTPIMDTGFSTFVSHESRSYSDDPETFVPYISQGMGKFRLVTTCSKTVNGKRVVTKRVVENIRGPKKIENERLFRHNPSRGWKLMENPCS	soluble
MSLNIFNSVKKAEIHVHLEATITPDLCKKFAKRNNHEIPEEMFGSEYAYQWDDFYDFIKKYDIVTSVIHTPEDYFELTYEYLKDCAANNVLYVEAMISSTHAKEKGMTYNSFIEGVYEASKKAEEDFGIVSRYIMNGIRHLGPESVQGTAEEVLNNPHPCLVGFGLAGDELHFPPNLFVETFDMLKKENFPITVHAGEWDGPVNIRNAINLLHPTRLGHGVRSIEDPDLVKEIIDKDIILETCPTSNVATKIYKDYIDHPVKTLFDQGVKVTVNSDDPPFFKCTINGEYKVMEDLGEGHHHHHH	soluble
MKLMDVHVLFSGGKDSSLSAVILKKLGYNPHLITINFGVIPSYKLAEETAKILGFKHKVITLDRKIVEKAADMIIEHKYPGPAIQYVHKTVLEILADEYSILADGTRRDDRVPKLSYSEIQSLEMRKNIQYITPLMGFGYKTLRHLASEFFILEEIKSGT	not soluble
MAATMNEGNAQHAWDLMKKITFAMLATRDGEKIRSRPMAAYVRPEEGAIYFLTDVRRHKDEEIAQDHHVNLGFANASAQKYVSVTGYAAISNDRAKIKELFGTEAKAWWDSADDPNIRVLKVTPEEAEYWDSPGSLISYAKMMVAAATGNRPDLGENAKVAI	not soluble
MGSDKIHHHHHHMRRALRPSMELISARTSSTSSIWTPRVSQSSELVFDATGCCSSLSGSSACDRGDGIVRGITMDRQRLQALGHKVRMIPAQFVKPHVKSNKSDIIDAEAIAEAATRPTMRFAAIKSEEQADLQALHRVRDQMIGTRTRLINQMGAFCLEYDIALRQGAGLFKLDLPLVLDDLE	not soluble
EHIEELLRNIRTQVLIKLIKPYTRIHIPFISKELNIDVADVESLLVQCILDNTIHGRIDQVNQLLELDHQKRGGARYTALDKW	soluble
HRPLNPAMVAFSNDPLLNDLALNSSYSLLFAVNNMKSEKSAEQFYGKMDNQKMLDLVRASSTKIDFDPTLLPTMNSNPATYQGKRKNLVILLQESLGAQFVGSLGGLPLTPNLDELMQEGWQFTQMYATGTRSVRGIEAVTTGFPPSPSRAVVKLSKSQTGFFTIADLLKEQGYHTQFIYGGEANFDNMKTFFFGNGFDQIVEEKNYTNPGFVGSWGVSDEDLYNKADEEFERLSKGDKPFFSLVFTSSNHSPYEYPEGKIEQYDSEHMTRNNAVKYSDYALGTFFDKAKKSSYWDDTIFIVIADHDARVFGANLVPVKHFHIPALIIGKDIQPRKDDRIANNIDMPPTLLSLIGVDAKTPMIGRDLTKPLAREDERAMMQYDKNFGYLTRDNLVVLSPGEKVSTMEYDFESQTMKPLEVDESVIDRAKANALFASKAYQNNWYSSKRTN	soluble
MSAIKVFILSDSIGETAHNVALAAAAQFSDYDIRYQRFPFVRTDSLLQTVLSQALKEHAAIFHTFVDRRLSQIVNQFCEAHELPYYDVITPALDTFSQITHVQPSNHPGTVHALNTNYFDRINAIEFAVTYDDGKNPSGFLEADVVLLGVSRTSKTPLSLYLANRNLKVANLPLVPQAQIPDEIWKVDPKKIFGLTNDPEKLNDIRRQRMVQYGLNPDTMYSNTDKIKAELEYADKIFKKIGCLVINVANKSIEETATLITESLNTDDTNNGLEHHHHHH	soluble
MRDVLFLPFADGMELAVAADGSAAVGDKPGDVVSAPADVVAYFAARVALMELVSVGAEAKAVVLQNFIADDRWEALCRGVRRTCRELGIDLPITGSTESNFPTVQSALGVTAIGTVANERKRIGITPEEAKFAVIGRPLVGSAVLSHPEWVAPLPLFAALLRTPYIYELIPIGSKGIYYEWTQLLAANGRQGRACACPLPLFSSGGPATSVLVSYDPDGEREIKKQAGSLFFPLHVEW	not soluble
MASIAYGNNNYVIVKRDGKILTSSDGHEWKEKYFLQGGSFTSVTYNGNMFVAAGAYTVALPYGGPLTYGKCVIMTSPDGNNWQLQDAGYNADLKGITWSGKKFAVAGTNIILSSENGITWNAVEVNAILHDIAFGNGIFAAVGYDGVIMSSVDGEHWETKVEALRYDLTNIVWYDNKFIAIGSGSTPSIVVSGDGKTRVARGPKDASYKCDSSLHNVEWRKTGCSRLRQYYSDRRAKGYS	soluble
